Test results from patent US20220357348A1 (FARON PHARMACEUTICALS, published 2022).

Molecular target: T1, human Clever-1 (Common Lymphatic Endothelial and Vascular Endothelial Receptor-1) expressed on KG-1 cells (human, UniProt Q9NY15 26-2570)
T1 construct: whole, on cells; also called Stabilin-1
Assay: flow cytometry on KG-1 cells, 4 C, titration 10-0.014 µg/mL, AlexaFluor 647 anti-HuIgG secondary
Method: Excess primary antibody was removed and the cells were then incubated for a further 30 minutes at 4° C. with either an AlexaFluor 647 labelled anti-HulgG or PE labelled anti-rat IgG antibody (ThermoFisher Scientific, Loughborough, UK) at 10 μg/mL. The unbound secondary antibody was washed away, and the cells fixed with BD CellFix (BD Biosciences, Oxford, UK) before analysis. Samples were acquired on an Attune NxT focussing cytometer equipped with a blue and red laser (ThermoFisher Scientific, Loughborough, UK) using the BL2 and RL1 channels for PE and AlexaFluor 647 dyes, respectively. The MFI values were plotted against the antibody concentration. […] The MFI in the absence of primary antibody is represented by a dotted line.

T1 sequence (Q9NY15 26-2570): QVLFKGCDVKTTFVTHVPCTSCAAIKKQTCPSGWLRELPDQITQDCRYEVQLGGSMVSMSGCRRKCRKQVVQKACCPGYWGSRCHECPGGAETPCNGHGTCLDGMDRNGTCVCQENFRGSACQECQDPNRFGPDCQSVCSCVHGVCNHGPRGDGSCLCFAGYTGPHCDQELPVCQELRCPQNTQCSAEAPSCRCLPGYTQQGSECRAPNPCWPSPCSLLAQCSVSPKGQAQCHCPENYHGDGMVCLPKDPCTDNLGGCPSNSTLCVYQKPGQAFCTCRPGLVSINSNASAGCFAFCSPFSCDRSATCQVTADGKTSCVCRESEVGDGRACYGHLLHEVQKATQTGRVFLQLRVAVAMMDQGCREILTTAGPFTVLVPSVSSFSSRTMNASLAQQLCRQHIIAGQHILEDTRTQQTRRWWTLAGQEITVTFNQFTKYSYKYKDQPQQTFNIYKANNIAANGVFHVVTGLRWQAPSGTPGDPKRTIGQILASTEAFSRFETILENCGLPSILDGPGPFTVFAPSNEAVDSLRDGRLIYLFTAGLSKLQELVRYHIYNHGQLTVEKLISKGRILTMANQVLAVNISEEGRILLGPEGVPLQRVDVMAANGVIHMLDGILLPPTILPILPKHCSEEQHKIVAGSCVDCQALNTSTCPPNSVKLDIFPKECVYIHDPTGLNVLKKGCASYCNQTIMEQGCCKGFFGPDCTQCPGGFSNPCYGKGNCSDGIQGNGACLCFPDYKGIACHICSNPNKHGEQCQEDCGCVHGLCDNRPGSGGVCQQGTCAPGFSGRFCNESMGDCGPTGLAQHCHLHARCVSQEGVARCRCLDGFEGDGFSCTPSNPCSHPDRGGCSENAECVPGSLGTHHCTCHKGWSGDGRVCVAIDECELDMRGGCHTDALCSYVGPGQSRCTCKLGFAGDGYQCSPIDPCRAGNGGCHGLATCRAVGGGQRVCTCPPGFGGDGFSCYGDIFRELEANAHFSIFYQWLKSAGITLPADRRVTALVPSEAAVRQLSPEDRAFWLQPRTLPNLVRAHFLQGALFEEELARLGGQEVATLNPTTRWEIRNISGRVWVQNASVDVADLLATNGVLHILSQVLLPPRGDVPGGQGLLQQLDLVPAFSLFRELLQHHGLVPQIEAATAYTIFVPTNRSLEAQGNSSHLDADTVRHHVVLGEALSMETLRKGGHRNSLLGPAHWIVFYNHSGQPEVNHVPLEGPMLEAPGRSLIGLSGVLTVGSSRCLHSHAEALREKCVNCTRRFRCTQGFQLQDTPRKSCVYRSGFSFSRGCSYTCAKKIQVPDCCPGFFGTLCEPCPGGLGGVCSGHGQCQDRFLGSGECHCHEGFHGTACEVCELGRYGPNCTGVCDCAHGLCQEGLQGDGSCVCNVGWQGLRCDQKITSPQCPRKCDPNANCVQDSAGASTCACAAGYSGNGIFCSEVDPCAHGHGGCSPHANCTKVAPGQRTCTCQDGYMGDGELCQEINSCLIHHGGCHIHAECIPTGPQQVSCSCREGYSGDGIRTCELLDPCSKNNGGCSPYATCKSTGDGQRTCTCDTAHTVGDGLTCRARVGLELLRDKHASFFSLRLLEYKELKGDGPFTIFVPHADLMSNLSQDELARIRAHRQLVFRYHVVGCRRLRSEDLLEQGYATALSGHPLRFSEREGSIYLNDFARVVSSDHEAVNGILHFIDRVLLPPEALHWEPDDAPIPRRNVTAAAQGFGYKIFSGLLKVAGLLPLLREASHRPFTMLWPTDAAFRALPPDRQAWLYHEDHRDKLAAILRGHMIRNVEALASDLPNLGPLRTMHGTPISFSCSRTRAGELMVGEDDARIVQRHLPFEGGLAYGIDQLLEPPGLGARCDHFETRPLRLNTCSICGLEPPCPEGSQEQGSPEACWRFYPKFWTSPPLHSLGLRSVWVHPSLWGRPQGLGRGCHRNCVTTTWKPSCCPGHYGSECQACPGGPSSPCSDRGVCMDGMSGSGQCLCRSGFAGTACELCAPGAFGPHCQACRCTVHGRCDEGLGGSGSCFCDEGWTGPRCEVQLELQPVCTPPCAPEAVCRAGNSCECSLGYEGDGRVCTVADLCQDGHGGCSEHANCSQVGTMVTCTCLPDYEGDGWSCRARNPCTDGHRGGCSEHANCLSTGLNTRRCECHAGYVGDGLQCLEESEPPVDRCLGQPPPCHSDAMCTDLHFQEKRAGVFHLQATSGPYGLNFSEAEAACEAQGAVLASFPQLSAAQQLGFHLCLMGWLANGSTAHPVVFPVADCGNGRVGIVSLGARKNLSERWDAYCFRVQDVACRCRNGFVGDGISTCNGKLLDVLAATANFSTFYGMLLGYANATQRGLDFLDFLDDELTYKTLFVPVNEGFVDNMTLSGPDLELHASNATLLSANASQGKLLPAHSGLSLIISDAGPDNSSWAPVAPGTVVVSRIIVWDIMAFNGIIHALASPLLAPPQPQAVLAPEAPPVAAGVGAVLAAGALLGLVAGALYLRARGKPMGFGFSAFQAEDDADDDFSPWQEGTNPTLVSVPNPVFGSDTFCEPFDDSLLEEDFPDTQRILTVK

binding result: binds
B1: humanized anti-Clever-1 antibody FP-1305 (DSM ACC3361) (antibody, human IgG4 S228P, kappa, V domains shown)
VH: QVTLKESGPTLVKPTQTLTLTCSFSGFSLSTSGMGIGWIRQPPGKALEWLAHIWWDDDKRYNPALKSRLTISKDTSKNQVVLTMTNMDPVDTATYYCARHYGYDPYYAMDYWGQGTLVTVSS
VL: EIVLTQSPGTLSLSPGERATLSCTASSSVSSSYLHWYQQKPGKAPKLLIYRTSNLASGVPSRFSGSGSGTDYTLTISSLQPEDFATYYCHQYHRSPPTFGQGTKLEIKR
notes: Its isotype control is HuIgG4 S241P L248E; also called bexmarilimab
